Source: the nanobody polyreactivity screen of Harvey et al. (2022)

Assay: yeast display, Sf9 membrane polyspecificity reagent, FACS + sequencing; frameworks hold sequencing errors
Procedure, shortened: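 Using colony PCR, genes from sorted yeast display clones were amplified, then sequenced on MiSeq at 2 × 250 and filtered by CDR length. The clones had been stained with 10% biotinylated, detergent-solubilized Sf9 membrane reagent for 1 hour at 4 °C and sorted by FACS into low and high (top ~1%) gates on anti-HA and streptavidin fluorescence. Polyreactivity labels come from the gate of origin.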

Sequence: QVQLVESVGGLVQAGGSLRLSCAASGSTFWYNAMGWYRLAPGKERELVAAISQSGGRTYYADSVKGRFTISRDNAKNTVYLQMNSLKPEDTAVYYCNAVSRDKSLYDYWGQGTQVTVSS
- polyreactivity (PSR sort gate): high polyreactivity

Sequence: QVQLVESGGGLVQAGGSLRLSCAATGSIYSYAMGWNRQAPGKERELVAAISRSGGRTYYADSVKGRFTISRDNAKNTVYLQMNSLKPEDTAVYYCAADGYSAKYYPGGDYWGQGTQVTVSS
- polyreactivity (PSR sort gate): high polyreactivity

Sequence: QVQLVESGGGLVQAGVILRLSCAASGSTIGVNAMGWYRQPPAKERELVAAISLGGGRTYYADSVKGRFTISRDNAKNTVNLQMNCLKPEDTAVYYCNTDFGARMGYWGQGTQVTVSS
- polyreactivity (PSR sort gate): high polyreactivity

Sequence: QVQLVESGGGLVQAGGSLRLSCAASGFILGLNAMGWYRRAPGKEREFVADISWSGDSTYYADSVKGRFTISRDNAKNTVYLQMNSLKPEDTAVYFCAADRYYNWGYYYWGQGTQVTVSS
- polyreactivity (PSR sort gate): low polyreactivity

Sequence: QVQLVESGGGLVQAGGSLRLSCAASGSTFSYNAMGWYRPAPGKERELVAAISGSGGTTYYADSVKGRFTISRDNAKNTVYLQMNSLKPEDTAVYYCNAYVRRTRDYDYWGQGTQVTVSS
- polyreactivity (PSR sort gate): high polyreactivity

Sequence: QVQLVESGGGLVQAGGSLRLSCAASGSTLVYYDMGWYRQAPGKERELVATITGTDSAYYAVSVKGRFTISRDNAMNTVYLQMNRLKPEDTADCAADRAASRADYEYWGQGTQVTVSS
- polyreactivity (PSR sort gate): low polyreactivity

Sequence: QVQLVESGGGLVQAGGSLRLICAASGFIFYPYAMGWYRQAPGKERELVAVITSGGRTYYADSVKGRFTISRDNAKNTVYLQMNSLKPEDTAVYYCNADTFQWWDIADVYVIVKYGYWGQGTQVTVSS
- polyreactivity (PSR sort gate): low polyreactivity

Sequence: QVHLVESGGGLVQAGGSLRLSCAASGLTFAWSAMGWYRPAPGKEREWVAAITSSGSRTYYADSVKGRFTISRDNAKNTVYLQMNSLKPEDTAVYYCAAPSRYRPTKGYPYYYWGQGTQVTVSS
- polyreactivity (PSR sort gate): high polyreactivity

Sequence: QVQLVESGGGLVQAGGSLRLSCAASGFTFVRYTMGWYRKAPGKERELVAAITASGDRTYYADSVKGRFTISRDNAKNTVYLQMNSLKPEDTAVYYCAKEYWGVTPTYYYWGQGTQVTVSS
- polyreactivity (PSR sort gate): high polyreactivity

Sequence: QVQLVESGGGLVQAGGSLRLSCAASGSTFWSNPMGWYRQAPGKERELVAAISISDGNTYYADSVKGRFTISRDNAKNTVYLQMNSLKPDDTAVYYCATVGSEDGDPGFDYWGQGTQVTVSS
- polyreactivity (PSR sort gate): low polyreactivity

Sequence: QDQLVESGGGLVQAGGSLRLSCAASGSTFVYYAMGWYRQAPGKERELVAAISRTGNTYYADSVKGRFTISRDNAKNTVYLQMNSLKPEDSAVYYCAKDYWRAYGSYEYWGQGTQVTVSS
- polyreactivity (PSR sort gate): low polyreactivity

Sequence: QVQLVESGGGLVNAGVSLLLSCAASGYIFVQYAMGWNRQAHVKERELVAAISKSGSSTYYADSVKGRFTISRDNAKNTVFLLINSLKPADSAVYYCAVVYTYVSGFTYGYWGQGTQVIVSS
- polyreactivity (PSR sort gate): low polyreactivity

Sequence: QFQLVESGGGLVQAGGSLRLTCAASVSTFSSYVMGWYRQAPGKDRELVAAISSIGGSTYYADSVKGRFTISRDNAKTNDYLQMNSLKPEDTAVYYCAAEPPGSTYEGGYWGQGTQVTVSS
- polyreactivity (PSR sort gate): low polyreactivity

Sequence: QVQLVESGGGLVQAGGSLRLSCAASGSTFGINAMGWYRQAHGKERELVARISSGVRTYYADSVKGRFTISRDNAKNTVYLQMNSLKPEDTAVYYCAAVYYRGVDRAILSYRYYYWGQGTQVTVSS
- polyreactivity (PSR sort gate): high polyreactivity

Sequence: QVQIVESGGGLVQAGGSLRLSCAASGRTLDVYAMGWDRQAPGKERELVARITSGGSTNYADSVKGRFTISRDNAKNTVYLQMNSLKPEDTAVYYCNAVVYPRPYTRPRYRYDYWGQGTQVTVSS
- polyreactivity (PSR sort gate): high polyreactivity

Sequence: QVQLVESGGGLVQAGGSLRLSCAASGFTFYRNPMGWYRQAPGKERELVAAISARGVSTYYADSVKGRFTISRDNAKNTVYLQMNSLKPEDTAVYYFSAVNYIYTGGGTYYYWGQGTQVTVSS
- polyreactivity (PSR sort gate): high polyreactivity

Sequence: QVQLVESGGGLVQAGGSLRLSCAASGFTFNYYAMGWYRQAPGKERELVAGITRSGVSTNYADSVKGRFTISRDNAKNTVYLQMNSLKPEDTAGYYSAREEGRRYRGWPYVFAPQHDYWGQGTQVTVSS
- polyreactivity (PSR sort gate): high polyreactivity

Sequence: QVQLVESGGGLVQEGGSLRLSCAASGGIFGWYAMGWYRQAPGKERELVATITWRGGRTYYADSVKGRFTISRDNEKNTVYLQMNSLKPEDTAVYYCNAEWLWYDAGYRYTIRDSWGQGTQVTVSS
- polyreactivity (PSR sort gate): low polyreactivity

Sequence: QVQLVESAGGLVQARGSLRLSCAASGITFAQYAKGWYRQATGKERELVAGITRSGGSTHYADSVKGRFTISRDNAKYTVYLQMKSLKPEDSAVYYCNARYPYRGKRKPPDYWGQGTQVTVSS
- polyreactivity (PSR sort gate): high polyreactivity

Sequence: QVQLVESGVGLVQAGGSLRLSCAASGLTFATNAMGWYRQAPGKERELVAAITGSGGSTNYADSVKGRFTISRDNAKNTVYLQMNSLKPEDTAVYYCAADLLWEPSRGYRGDYWGQGTQVTVSS
- polyreactivity (PSR sort gate): low polyreactivity

Sequence: QVQLVESGGGLVQAGGSLRLSCAASGHIFFINAMGWYRQAPGKERELVAAIDWSGGSTYYADSVKGRFTISRDNAKNTDYLQMNSLKPADTAVYYCAAELLWDYILYYYWGQGTQVTVSS
- polyreactivity (PSR sort gate): high polyreactivity

Sequence: QVQLVESGGGLVQAGGSLRLSCAASGRTFKSYALGWYRQAPGKERELVATITRDGRTNYADSVKGRFTISRDNAKNTVYLQMNSLKPEDTAVYYCNADSRYRYDYWGQGTQVTVSS
- polyreactivity (PSR sort gate): low polyreactivity

Sequence: QVQLVESGGGLVQAGGRLRLSCAASGIIFYVYTMGWSRQAPGKERELVAAISGSGGSTTYADSVKGRFTISRDNAKNTVYLQMNSLKPEDTAVYYCNAKKWFYRWWKFSEFDYWGQGTQVTVSS
- polyreactivity (PSR sort gate): high polyreactivity

Sequence: QVQLVESGGGLVQAGGSLRLSCAASGRTFVRNAMGWYRQAPGKERELVAGITRSGGSTYYADSVKGRFTISRDNAKNTVYLQMNSLKPEDTAVYYCAKRYDVYVGTVRPYDYWGQGTQVTVSS
- polyreactivity (PSR sort gate): low polyreactivity

Sequence: QDQLVESGGGLVLSGGRLRLSCAASGSNFSFYAMGWYRQAPGKERELVAGIRWRGGTSTFYADSVKWRFTISRDNAKNTVYLQMNSLKPEDTAVYYCAAKRRTGGNGYWGQGTQVTVSS
- polyreactivity (PSR sort gate): high polyreactivity

Sequence: QVQLVESGGGLVQAGGSLRLSCAASGSTIYLNAMGWYRQAPGKERELVAAIDYRGGSTYYADSVKGRFTISRDNAKNTVYLQMNSLKPEDTAVYYCNADYVYVHYQPGYYWGQGTQVTVSS
- polyreactivity (PSR sort gate): low polyreactivity

Sequence: QVQLVESGAGLFQAGGRLRISCAPSGFIFVFNAMGWYRQAPGKERELVAAINRGDITNYADSVKGRFTISRDNAKNTVYLQMHSLSPVDTAVYFCAADGEDSLWTGYDYDYWGQGTQVTVST
- polyreactivity (PSR sort gate): low polyreactivity

Sequence: QVQLVESGGGLVQAGGSLRLSCAASGNILHYYTMGLYRQAPGKETELVARINYSTGSTYYADSVKGRFTISRDNAKNTVYLQMNSLKPEDTAVYYCAAEKERDEEYDYWGQGTQVTVSS
- polyreactivity (PSR sort gate): low polyreactivity

Sequence: QVQLVESGGGLVQAGGSLRLSSAASGFTFVRYTMGWYRQAPGKERELVAAINASGDRTYYADSVKGRFTISRDNAKNTVYLQMNCLIPEDTAVFYCAAGSSLYYSHMGYWGQGTQVTVSS
- polyreactivity (PSR sort gate): high polyreactivity

Sequence: QEQLVESGGGLVQAGGSLRLICADSGRTLVYYGMGWYRQAPGKERELVAAISGSGGRTYYADSVKGRFTISRDNAKNTVYLQMNSLKPEDTAVYYCAALCRSYPAKYASYDYCGQGTQVTVSS
- polyreactivity (PSR sort gate): high polyreactivity

Sequence: QVQLVESGGGLVQAGGSLRLSCAASGRIFYEYAMGWYRQAPGKERELVAAITRGDSTYYADSVKGRFTISRDNAKNTVYLQMNSLKPEDTAVYFCNAGVFDYSGDSNYWGQGTQVTVSS
- polyreactivity (PSR sort gate): low polyreactivity

Sequence: QVQLVESGGGLVQAGGSLRLSCAASGSIFDQYAMGWYRPAPGKERELVAAIDTSGGSTYYADSVKGRFTISRDNAKNTVYLQMNSLKPEDTAVYYCNAGGDGDILTTEMDYWGPGTQVTVSS
- polyreactivity (PSR sort gate): low polyreactivity

Sequence: QVQLVESGGGLVQAGGSLRLSCAASGFTFFLYAMGWYRQAPGKERELVARISSGRDTYYADSVKGRFTISRDNAKKTVYLQMNSLKPEDTAVYYCAVAFWFGYRYYYWGQGTQVTVSS
- polyreactivity (PSR sort gate): high polyreactivity

Sequence: QVQLVESGGGLVQAGGSLRLSCAASGRIFHKYAMGWYRQAPGKERELVATIRSDDITYYADSVKGRFTISRDNAKNTVYLQMNSLKPEDTAVYYCAAYFWRYSSLYYYWGQGTQVTVSS
- polyreactivity (PSR sort gate): high polyreactivity

Sequence: QVQLVESGGGLVQAGGSLRLSCAASGSIFGYYAMGWYRQEPGKERELVAAITRSGGSTYYADSVKGRFTISRDNAKNPVYLQMNSLKPEDTAVYYCNAVRYAVRLPAFPGYDYWGQGTQVTVSS
- polyreactivity (PSR sort gate): high polyreactivity

Sequence: QVQLVESGGGLVQAGGSLRLSCAASGRIFIINALGWYRQAPGKERELVAAINTGGGTNYADSVKGRFTISRDNAKNTVYLQMNSLKPEDTAVYYCAARTYDYRARHKDGYWGQGTQVTVSS
- polyreactivity (PSR sort gate): high polyreactivity

Sequence: QVQLVESGGGLVQAGGSLRLSCAASGRIFIYNAMGWYRQAPGKERELVAAISSGGSTYYADSVKGRFTISRDNANNTVYLQMNSLKAEDTAVYYCAAPRGHGKYYSWGQGTQVTVSS
- polyreactivity (PSR sort gate): high polyreactivity

Sequence: QVQLVESGGRLVQAGGSLRLSCAASGITFYYYAMGWYRQAPGKERELVAAISVSGGSTYYADSVKGRFTISRDNAKNTVYLQMNSLKPEDTAVYYCAAADLLSYTYPEYDYWGQGTQVTVSS
- polyreactivity (PSR sort gate): low polyreactivity

Sequence: QVQLVESGGGLVQAGGSLRLSCAASGSTFDIYAMGWYRQAPGKERELVAAITSGGSTYADSVKGRFTISRDNAKNTVYLQKNSLKPVETAVYYSNADRWFGNYRHLTFLNDYWGQGTQVTVSA
- polyreactivity (PSR sort gate): low polyreactivity

Sequence: QVQLVESGGGLVQAGGSLRLSCAASGIIFSVNAMGWYRQAPGTERELVAAISSSGGDTYYADSVKGRFTISRDNAKNTVYLQMNSLKPEDTAVYYCAASVEQPGLAYDYWGQGTQVTVSS
- polyreactivity (PSR sort gate): low polyreactivity

Sequence: QVQLVESGVGLVQAGGSLRLSCAASGNTFTAYSMGWYRQAPGKERELVAAISSSGRTNYADSVKGRFTISRDNAKNTVYLQMNSLKPADTAVYYCAAAALRRNGVREGNYWGQGTQVTVSS
- polyreactivity (PSR sort gate): high polyreactivity

Sequence: QVNLVESGVGLVQAGVSLRLSCAASGRIFQYYAMGWYRQATGKERELVAAISRSGGSTYYADSVKGRFTISRDNANNTVYLQMNSLKPEDTAVYYCAKVYRGFSYGYCGQGTQVTVSS
- polyreactivity (PSR sort gate): high polyreactivity

Sequence: QDQLVESGGGLVQAGGSLRLSCAASGRTCGYYTMGWYRQAPGKERELVATISSDGTTNYADSVKGRFTISRDNAKNTVYLQMNSLKQEDTAGYYCNADFRLQYYYRIYDYWGQGTQVTVSS
- polyreactivity (PSR sort gate): low polyreactivity
